Laboratory results taken from IntAct's records for PubMed 18154663.

B1: RalBP1-associated Eps domain-containing protein 2 (Homo sapiens), Q8NFH8 (parent)
chain: MEAAAAAAAAAAAAAAAGGGCGSGPPPLLLSEGEQQCYSELFARCAGAAGGGPGSGPPEAARVAPGTATAAAGPVADLFRASQLPAETLHQITELCGAKRVGYFGPTQFYIALKLIAAAQSGLPVRIESIKCELPLPRFMMSKNDGEIRFGNPAELHGTKVQIPYLTTEKNSFKRMDDEDKQQETQSPTMSPLASPPSSPPHYQRVPLSHGYSKLRSSAEQMHPAPYEARQPLVQPEGSSSGGPGTKPLRHQASLIRSFSVERELQDNSSYPDEPWRITEEQREYYVNQFRSLQPDPSSFISGSVAKNFFTKSKLSIPELSYIWELSDADCDGALTLPEFCAAFHLIVARKNGYPLPEGLPPTLQPEYLQAAFPKPKWDCQLFDSYSESLPANQQPRDLNRMEKTSVKDMADLPVPNQDVTSDDKQALKSTINEALPKDVSEDPATPKDSNSLKARPRSRSYSSTSIEEAMKRGEDPPTPPPRPQKTHSRASSLDLNKVFQPSVPATKSGLLPPPPALPPRPCPSQSEQVSEAELLPQLSRAPSQAAESSPAKKDVLYSQPPSKPIRRKFRPENQATENQEPSTAASGPASAATMKPHPTVQKQSSKQKKAIQTAIRKNKEANAVLARLNSELQQQLKEVHQERIALENQLEQLRPVTVL
partner: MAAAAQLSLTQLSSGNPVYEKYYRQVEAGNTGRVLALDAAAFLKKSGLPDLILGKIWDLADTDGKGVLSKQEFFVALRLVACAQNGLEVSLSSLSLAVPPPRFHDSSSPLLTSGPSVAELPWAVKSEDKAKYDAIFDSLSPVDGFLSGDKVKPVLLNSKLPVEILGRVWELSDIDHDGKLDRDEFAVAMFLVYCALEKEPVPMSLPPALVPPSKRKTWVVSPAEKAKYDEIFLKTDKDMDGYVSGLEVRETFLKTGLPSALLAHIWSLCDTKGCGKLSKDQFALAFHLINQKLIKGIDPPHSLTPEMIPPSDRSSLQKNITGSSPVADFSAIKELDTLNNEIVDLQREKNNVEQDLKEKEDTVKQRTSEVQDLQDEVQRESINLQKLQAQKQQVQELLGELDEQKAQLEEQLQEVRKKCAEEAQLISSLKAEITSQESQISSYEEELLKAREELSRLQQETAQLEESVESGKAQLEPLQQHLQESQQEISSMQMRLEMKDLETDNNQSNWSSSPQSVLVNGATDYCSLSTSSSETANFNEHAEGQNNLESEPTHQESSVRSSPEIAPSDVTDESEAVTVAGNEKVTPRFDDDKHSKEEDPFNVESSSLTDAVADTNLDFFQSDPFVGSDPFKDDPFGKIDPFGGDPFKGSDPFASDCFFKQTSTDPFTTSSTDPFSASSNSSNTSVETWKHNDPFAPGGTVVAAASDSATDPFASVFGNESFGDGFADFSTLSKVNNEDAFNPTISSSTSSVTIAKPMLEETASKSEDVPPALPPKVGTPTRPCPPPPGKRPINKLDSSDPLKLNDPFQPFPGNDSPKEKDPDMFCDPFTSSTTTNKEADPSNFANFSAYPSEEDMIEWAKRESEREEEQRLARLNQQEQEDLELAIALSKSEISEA

Tests used:
Conditions in all cases: with eps15_mouse Eps15, P42567
[1] = variants of: B1
[2] = variants of: B1; remark: listed apart in the source
[3] = variants of: B1; remark: listed apart in the source
[4] = variants of: B1; remark: listed apart in the source

W324A
effect of a mutation on the interaction [1]: decreasing interaction

K351A
effect of a mutation on the interaction [2]: decreasing interaction | effect of a mutation on the interaction [3]: disrupting interaction

K312A
effect of a mutation on the interaction [4]: decreasing interaction | effect of a mutation on the interaction [3]: disrupting interaction
